From PMC11879436, “VvARF19 represses VvLBD13-mediated cell wall degradation to delay softening of grape berries”

T1: VvLBD13 (Vitis vinifera cv. Shine Muscat, UniProt D7SJL6 27-229)
T1 sequence: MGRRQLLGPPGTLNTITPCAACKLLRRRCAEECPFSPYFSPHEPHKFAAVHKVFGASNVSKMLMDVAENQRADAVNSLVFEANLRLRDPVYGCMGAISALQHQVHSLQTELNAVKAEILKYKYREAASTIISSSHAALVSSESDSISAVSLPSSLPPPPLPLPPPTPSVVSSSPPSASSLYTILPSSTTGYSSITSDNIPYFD

B1: VvXTH10 promoter probe (dsDNA)
DNA 1: TCGAGTGTTGCGGCTTTGAAAAATA
DNA 2: TATTTTTCAAAGCCGCAACACTCGA
B2: VvEXPLA1 promoter probe (dsDNA)
DNA 1: AATAGAGAAGCCCACACGTGAGCAA
DNA 2: TTGCTCACGTGTGGGCTTCTCTATT

Molecular target: T1, VvLBD13
Assay: EMSA; with unlabeled cold probe competition; EMSA kit (Thermo 20148), 25 C, 30 min; buffer, salt and pH not stated
Conditions: protein: recombinant; tags: His (pET-32a(+)); chain copies: 2; label: 5' biotin; blunt

Binder	binding result
B1	binds
B2	binds
